Measured values reported in the RNAGym collection of RNA variant scans (doi:10.7554/elife.80360).

B1: Twister Ribozyme (parent)
chain: AACACUGCCAAUGCCGGUCCCAAGCCCGGAUAAAAGUGGAGGGGGCGG

Variants of: B1
Assay: self-cleavage, relative activity (ratio to wild type); higher = more cleavage; co-transcriptional

| Variant | self-cleavage |
| --- | --- |
| AACACUGCCAAUGCCGGUCCCACGCCCGGAUACAAGUGGAGGGGGCGG [A23C A33C] | 0.0964 |
| AACACUGCCAAUGCCGGUCCCACGCCCGGAUAUAAGUGGAGGGGGCGG [A23C A33U] | 0.13 |
| AACACUGCCAAUGCCGGUCCCACGCCCGGAUAGAAGUGGAGGGGGCGG [A23C A33G] | 0.0917 |
| AACACUGCCAAUGCCGGUCCCACGCCCGGAUAAAAGUGGAGGGGGAGG [A23C C46A] | 0.164 |
| AACACUGCCAAUGCCGGUCCCACGCCCGGAUUAAAGUGGAGGGGGCGG [A23C A32U] | 0.241 |
| AACACUGCCAAUGCCGGUCCCAGGCCCGGAUAAAAGUGGAGGGGGGGG [A23G C46G] | 0.405 |
| AACACUGCCAAUGCCGGUCCCAGGCCCGGAUAAAAGUGGAGGGGGUGG [A23G C46U] | 0.579 |
| AACACUGCCAAUGCCGGUCCCACGUCCGGAUAAAAGUGGAGGGGGCGG [A23C C25U] | 0.116 |
| AACACUGCCAAUGCCGGUCCCACGCCCGUAUAAAAGUGGAGGGGGCGG [A23C G29U] | 0.124 |
| AACACUGCCAAUGCCGGUCCCACGCCCGCAUAAAAGUGGAGGGGGCGG [A23C G29C] | 0.0814 |
| AACACUGCCAAUGCCGGUCCCAGGCCCGGAUAAUAGUGGAGGGGGCGG [A23G A34U] | 0.15 |
| AACACUGCCAAUGCCGGUCCCACGCCCGGAUAAAAGUGGACGGGGCGG [A23C G41C] | 0.112 |
| AACACUGCCAAUGCCGGUCCCACGCCCGGAUAAAAGUGGAGGGGGCUG [A23C G47U] | 0.145 |
| AACACUGCCAAUGCCGGUCCCACGCCCGGAUAAAAGUGGAGGGGGCAG [A23C G47A] | 0.127 |
| AACACUGCCAAUGCCGGUCCCACGCCCGGAUAAAAGUGGAGGGCGCGG [A23C G44C] | 0.212 |
| AACACUGCCAAUGCCGGUCCCACGCCCGGAUAAAAGUGGAGGGAGCGG [A23C G44A] | 0.478 |
| AACACUGCCAAUGCCGGUCCCACGCCCGGAUAAAAGUGGAGGGUGCGG [A23C G44U] | 0.195 |
| AACACUGCCAAUGCCGGUCCCACGCCCGGAUAAAAGUGUAGGGGGCGG [A23C G39U] | 0.0921 |
| AACACUGCCAAUGCCGGUCCCAGGGCCGGAUAAAAGUGGAGGGGGCGG [A23G C25G] | 0.0343 |
| AACACUGCCAAUGCCGGUCCCACGCUCGGAUAAAAGUGGAGGGGGCGG [A23C C26U] | 0.0813 |
| AACACUGCCAAUGCCGGUCCCACCCCCGGAUAAAAGUGGAGGGGGCGG [A23C G24C] | 0.124 |
| AACACUGCCAAUGCCGGUCCCAGGCCUGGAUAAAAGUGGAGGGGGCGG [A23G C27U] | 0.14 |
| AACACUGCCAAUGCCGGUCCCAGGCCAGGAUAAAAGUGGAGGGGGCGG [A23G C27A] | 0.147 |
| AACACUGCCAAUGCCGGUCCCAGGCCCGGAUCAAAGUGGAGGGGGCGG [A23G A32C] | 0.366 |
| AACACUGCCAAUGCCGGUCCCAGGCCCGGAUGAAAGUGGAGGGGGCGG [A23G A32G] | 0.402 |
| AACACUGCCAAUGCCGGUCCCACGCCCGGAUAAAAUUGGAGGGGGCGG [A23C G36U] | 0.0946 |
| AACACUGCCAAUGCCGGUCCCACGCCCGGAUAAAAAUGGAGGGGGCGG [A23C G36A] | 0.09 |

| Variant | self-cleavage |
| --- | --- |
| AACACUGCCAAUGCCGGUCCCAGGCCCGAAUAAAAGUGGAGGGGGCGG [A23G G29A] | 0.307 |
| AACACUGCCAAUGCCGGUCCCAGGCCCGUAUAAAAGUGGAGGGGGCGG [A23G G29U] | 0.425 |
| AACACUGCCAAUGCCGGUCCCACGCCCGGAUAAAAGGGGAGGGGGCGG [A23C U37G] | 0.0666 |
| AACACUGCCAAUGCCGGUCCCACGCCCGGAUAAAAGAGGAGGGGGCGG [A23C U37A] | 0.088 |
| AACACUGCCAAUGCCGGUCCCACGCCCGGAUAAAAGUGGAGGGGGCGC [A23C G48C] | 0.211 |
| AACACUGCCAAUGCCGGUCCCAGGCCCGGAUAAAACUGGAGGGGGCGG [A23G G36C] | 0.0979 |
| AACACUGCCAAUGCCGGUCCCAGGCCCGGGUAAAAGUGGAGGGGGCGG [A23G A30G] | 0.647 |
| AACACUGCCAAUGCCGGUCCCAGGCCCGGUUAAAAGUGGAGGGGGCGG [A23G A30U] | 0.587 |
| AACACUGCCAAUGCCGGUCCCACGCCCGGAUAAAAGUCGAGGGGGCGG [A23C G38C] | 0.219 |
| AACACUGCCAAUGCCGGUCCCAGGCCCGGAUAAAAGUGGAGCGGGCGG [A23G G42C] | 0.176 |
| AACACUGCCAAUGCCGGUCCCAGGCCCUGAUAAAAGUGGAGGGGGCGG [A23G G28U] | 0.184 |
| AACACUGCCAAUGCCGGUCCCAGGCCCCGAUAAAAGUGGAGGGGGCGG [A23G G28C] | 0.246 |
| AACACUGCCAAUGCCGGUCCCACGCCCGGAUAAGAGUGGAGGGGGCGG [A23C A34G] | 0.135 |
| AACACUGCCAAUGCCGGUCCCAGGCGCGGAUAAAAGUGGAGGGGGCGG [A23G C26G] | 0.107 |
| AACACUGCCAAUGCCGGUCCCAGGCUCGGAUAAAAGUGGAGGGGGCGG [A23G C26U] | 0.101 |
| AACACUGCCAAUGCCGGUCCCAGGCCCGGAUAAAAGUUGAGGGGGCGG [A23G G38U] | 0.236 |
| AACACUGCCAAUGCCGGUCCCAGGCCCGGAUAAAAGUAGAGGGGGCGG [A23G G38A] | 0.194 |
| AACACUGCCAAUGCCGGUCCCAGGCCCGGAUAAAAGUGGACGGGGCGG [A23G G41C] | 0.138 |
| AACACUGCCAAUGCCGGUCCCACGCCCGGAUAAAAGUGGAGGAGGCGG [A23C G43A] | 0.117 |
| AACACUGCCAAUGCCGGUCCCACGCCCGGAUAAAAGUGGAGGGGCCGG [A23C G45C] | 0.125 |
| AACACUGCCAAUGCCGGUCCCACGCCCGGAUAAAGGUGGAGGGGGCGG [A23C A35G] | 0.0714 |
| AACACUGCCAAUGCCGGUCCCACGCCCGGAUAAACGUGGAGGGGGCGG [A23C A35C] | 0.227 |
| AACACUGCCAAUGCCGGUCCCACGCCAGGAUAAAAGUGGAGGGGGCGG [A23C C27A] | 0.0984 |
| AACACUGCCAAUGCCGGUCCCACGCCGGGAUAAAAGUGGAGGGGGCGG [A23C C27G] | 0.0848 |
| AACACUGCCAAUGCCGGUCCCAGGCCCGGAUAAAAGUGAAGGGGGCGG [A23G G39A] | 0.143 |
| AACACUGCCAAUGCCGGUCCCACGCCCUGAUAAAAGUGGAGGGGGCGG [A23C G28U] | 0.161 |
| AACACUGCCAAUGCCGGUCCCACGCCCGGGUAAAAGUGGAGGGGGCGG [A23C A30G] | 0.385 |
